What all share (test): MST
The target in assay [1] is Cy5-G-actin (UniProt P68135).
In assay [2] the target is T1, GFP-CD2AP-1–475 aa (human, UniProt Q9Y5K6 1-475).
T1 sequence (looked up): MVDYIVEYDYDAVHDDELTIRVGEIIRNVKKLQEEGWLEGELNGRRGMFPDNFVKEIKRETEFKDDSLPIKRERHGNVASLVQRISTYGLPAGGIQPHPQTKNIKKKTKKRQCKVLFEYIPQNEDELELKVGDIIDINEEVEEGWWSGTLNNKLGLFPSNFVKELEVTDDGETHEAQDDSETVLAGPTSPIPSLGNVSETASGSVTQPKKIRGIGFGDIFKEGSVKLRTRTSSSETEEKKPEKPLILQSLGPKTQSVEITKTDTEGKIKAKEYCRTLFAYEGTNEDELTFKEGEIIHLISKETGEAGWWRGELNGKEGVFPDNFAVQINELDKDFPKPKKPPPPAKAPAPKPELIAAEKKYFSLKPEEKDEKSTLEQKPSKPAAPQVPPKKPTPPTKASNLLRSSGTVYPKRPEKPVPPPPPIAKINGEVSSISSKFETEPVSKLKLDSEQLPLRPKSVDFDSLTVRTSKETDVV

For assay [3], the target named is T2, GFP-CD2AP-1-335 aa (human, UniProt Q9Y5K6 1-335).
T2 sequence (looked up): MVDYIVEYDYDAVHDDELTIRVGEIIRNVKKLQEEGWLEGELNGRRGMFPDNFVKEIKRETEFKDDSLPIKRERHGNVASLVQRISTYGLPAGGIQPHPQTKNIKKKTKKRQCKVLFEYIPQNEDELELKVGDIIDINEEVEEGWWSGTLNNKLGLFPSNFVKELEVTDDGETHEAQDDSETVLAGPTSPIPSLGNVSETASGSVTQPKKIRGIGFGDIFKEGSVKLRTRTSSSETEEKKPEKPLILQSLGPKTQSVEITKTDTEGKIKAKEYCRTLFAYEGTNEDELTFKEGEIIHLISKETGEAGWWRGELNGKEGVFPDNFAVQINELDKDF

With “profilin (from UniProt P07737 1-140) (natural protein)”, in assay [1], the Kd (usually the equilibrium constant for the complex coming apart) was found to be 150 nM.

B1: PI3K p85α 1–315 aa (domain or fragment, human, UniProt P27986 1-315, looked up)
chain: MSAEGYQYRALYDYKKEREEDIDLHLGDILTVNKGSLVALGFSDGQEARPEEIGWLNGYNETTGERGDFPGTYVEYIGRKKISPPTPKPRPPRPLPVAPGSSKTEADVEQQALTLPDLAEQFAPPDIAPPLLIKLVEAIEKKGLECSTLYRTQSSSNLAELRQLLDCDTPSVDLEMIDVHVLADAFKRYLLDLPNPVIPAAVYSEMISLAPEVQSSEEYIQLLKKLIRSPSIPHQYWLTLQYLLKHFFKLSQTSSKNLLNARVLSEIFSPMLFRFSAASSDNTENLIKVIEILISTEWNERQPAPALPPKPPKPT
As for B1, the Kd amounted to 940 nM in assay [2] and 350 nM in assay [3].

Source of the values: paper PMC7039212 (The Journal of Cell Biology, 2019).
